18 molecules from US20230242635A1 (published 2023) can be followed below.

The chains are these.
B1: caninized anti-NGF antibody ZTS-841 (mAb2 of Table 4), canine IgGA, WT (antibody, from a related filing, part only)
heavy: EVQLVESGGDLVKPGGSLRLSCVASGFTFSSHGMHWVRQSPGKGLQWVAVINSGGSSTYYTDAVKGRFTISRDNAKNTVYLQMNSLRAEDTAMYYCAKESVGGWEQLVGPHFDYWGQGTLVIVSSASTTAPSVFPLAPSCGSTSGSTVALACLVSGYFPEPVTVSWNSGSLTSGVHTFPSVLQSSGLHSLSSMVTVPSSRWPSETFTCNVVHPASNTKVDKPVFNECRCTDTPPCPVPEPLGGPSVLIFPPKPKDILRITRTPEVTCVVLDLGREDPEVQISWFVDGKEVHTAKTQSREQQFNGTYRVVSVLPIEHQDWLTGKEFKCRVNHIDLPSPIERTISKARGRAHKPSVYVLPPSPKELSSSDTVSITCLIKDFYPPDIDVEWQSNGQQEPERKHRMTPPQLDEDGSYFLYSKLSVDKSRWQQGDPFTCAVMHETLQNHYTDLSLSHSPGK
VL: QSVLTQPTSVSGSLGQRVTISCSGSTNNIGILGASWYQLFPGKAPKLLVYGNGNRPSGVPDRFSGADSGDSVTLTITGLQAEDEADYYCQSFDTTLGAHVFGGGTHLTVL
B2: caninized anti-NGF antibody ZTS-841 (mAb2 of Table 4), canine IgGC, WT (antibody, from a related filing, part only)
heavy: EVQLVESGGDLVKPGGSLRLSCVASGFTFSSHGMHWVRQSPGKGLQWVAVINSGGSSTYYTDAVKGRFTISRDNAKNTVYLQMNSLRAEDTAMYYCAKESVGGWEQLVGPHFDYWGQGTLVIVSSASTTAPSVFPLAPSCGSQSGSTVALACLVSGYIPEPVTVSWNSVSLTSGVHTFPSVLQSSGLYSLSSMVTVPSSRWPSETFTCNVAHPATNTKVDKPVAKECECKCNCNNCPCPGCGLLGGPSVFIFPPKPKDILVTARTPTVTCVVVDLDPENPEVQISWFVDSKQVQTANTQPREEQSNGTYRVVSVLPIGHQDWLSGKQFKCKVNNKALPSPIEEIISKTPGQAHQPNVYVLPPSRDEMSKNTVTLTCLVKDFFPPEIDVEWQSNGQQEPESKYRMTPPQLDEDGSYFLYSKLSVDKSRWQRGDTFICAVMHEALHNHYTQISLSHSPGK
VL: B1 VL
B3: caninized anti-NGF antibody ZTS-841 (mAb2 of Table 4), canine IgGD, WT (antibody, from a related filing, part only)
heavy: EVQLVESGGDLVKPGGSLRLSCVASGFTFSSHGMHWVRQSPGKGLQWVAVINSGGSSTYYTDAVKGRFTISRDNAKNTVYLQMNSLRAEDTAMYYCAKESVGGWEQLVGPHFDYWGQGTLVIVSSASTTAPSVFPLAPSCGSTSGSTVALACLVSGYFPEPVTVSWNSGSLTSGVHTFPSVLQSSGLYSLSSTVTVPSSRWPSETFTCNVVHPASNTKVDKPVPKESTCKCISPCPVPESLGGPSVFIFPPKPKDILRITRTPEITCVVLDLGREDPEVQISWFVDGKEVHTAKTQPREQQFNSTYRVVSVLPIEHQDWLTGKEFKCRVNHIGLPSPIERTISKARGQAHQPSVYVLPPSPKELSSSDTVTLTCLIKDFFPPEIDVEWQSNGQPEPESKYHTTAPQLDEDGSYFLYSKLSVDKSRWQQGDTFTCAVMHEALQNHYTDLSLSHSPGK
VL: B1 VL
B4: caninized anti-IL31 antibody 11E12 (mAb1 of Table 5), canine IgGB, WT2 (antibody, part only; not given: light chain, part only)
heavy: EVQLVQSGAEVKKPGASVKVSCKTSGYTFKYYDINWVRQAPGAGLDWMGWIFPGDGGTKYNETFKGRVTLTADTSTSTAYMELSSLRAGDIAVYYCARGGTSVIRDAMDYWGQGTLVTVSSASTTAPSVFPLAPSCGSTSGSTVALACLVSGYFPEPVTVSWNSGSLTSGVHTFPSVLQSSGLYSLSSMVTVPSSRWPSETFTCNVAHPASKTKVDKPVPKRENGRVPRPPDCPKCPAPEMLGGPSVFIFPPKPKDTLLIARTPEVTCVVVDLDPEDPEVQISWFVDGKQMQTAKTQPREEQFNGTYRVVSVLPIGHQDWLKGKQFTCKVNNKALPSPIERTISKARGQAHQPSVYVLPPSREELSKNTVSLTCLIKDFFPPDIDVEWQSNGQQEPESKYRTTPPQLDEDGSYFLYSKLSVDKSRWQRGDTFICAVMHEALHNHYTQESLSHSPGK
B5: caninized anti-IL31 antibody 34D03 (mAb1), canine IgGB, N434A (antibody)
chain 1: EVQLVESGGDLVKPGGSLRLSCVASGFTFSNYGMSWVRQAPGKGLQWVATISYGGSYTYYPDNIKGRFTISRDNAKNTLYLQMNSLRAEDTAMYYCVRGYGYDTMDYWGQGTLVTVSSASTTAPSVFPLAPSCGSTSGSTVALACLVSGYFPEPVTVSWNSGSLTSGVHTFPSVLQSSGLYSLSSMVTVPSSRWPSETFTCNVAHPASKTKVDKPVPKRENGRVPRPPDCPKCPAPEMLGGPSVFIFPPKPKDTLLIARTPEVTCVVVDLDPEDPEVQISWFVDGKQMQTAKTQPREEQFNGTYRVVSVLPIGHQDWLKGKQFTCKVNNKALPSPIERTISKARGQAHQPSVYVLPPSREELSKNTVSLTCLIKDFFPPDIDVEWQSNGQQEPESKYRTTPPQLDEDGSYFLYSKLSVDKSRWQRGDTFICAVMHEALHAHYTQESLSHSPGK
chain 2: EIVMTQSPASLSLSQEEKVTITCKASQSVSFAGTGLMHWYQQKPGQAPKLLIYRASNLEAGVPSRFSGSGSGTDFSFTISSLEPEDVAVYYCQQSREYPWTFGQGTKLEIK
B6: caninized anti-IL31 antibody 34D03 (mAb1), canine IgGB, N434F (antibody)
chain 1: B5 chain 1 with A440F
chain 2: B5 chain 2
B7: caninized anti-IL31 antibody 34D03 (mAb1), canine IgGB, N434G (antibody)
chain 1: B5 chain 1 with A440G
chain 2: B5 chain 2
B8: caninized anti-IL31 antibody 34D03 (mAb1), canine IgGB, N434K (antibody)
chain 1: B5 chain 1 with A440K
chain 2: B5 chain 2
B9: caninized anti-IL31 antibody 34D03 (mAb1), canine IgGB, N434I (antibody)
chain 1: B5 chain 1 with A440I
chain 2: B5 chain 2
B10: caninized anti-IL31 antibody 34D03 (mAb1), canine IgGB, N434L (antibody)
chain 1: B5 chain 1 with A440L
chain 2: B5 chain 2
B11: caninized anti-IL31 antibody 34D03 (mAb1), canine IgGB, N434Q (antibody)
chain 1: B5 chain 1 with A440Q
chain 2: B5 chain 2
B12: caninized anti-IL31 antibody 34D03 (mAb1), canine IgGB, N434V (antibody)
chain 1: B5 chain 1 with A440V
chain 2: B5 chain 2
B13: caninized anti-IL31 antibody (mAb1), canine IgGB, N434Y (antibody)
chain 1: B5 chain 1 with A440Y
chain 2: B5 chain 2
B14: caninized anti-IL31 antibody 34D03 (mAb1), canine IgGB, N434S (antibody)
chain 1: B5 chain 1 with A440S
chain 2: B5 chain 2
B15: caninized anti-IL31 antibody 34D03 (mAb1), canine IgGB, N434M (antibody)
chain 1: B5 chain 1 with A440M
chain 2: B5 chain 2
B16: caninized anti-IL31 antibody 34D03 (mAb1), canine IgGB, N434R (antibody)
chain 1: B5 chain 1 with A440R
chain 2: B5 chain 2
B17: caninized anti-IL31 antibody 34D03 (mAb1), canine IgGB, N434W (antibody)
chain 1: B5 chain 1 with A440W
chain 2: B5 chain 2
B18: caninized anti-IL31 antibody 34D03 (mAb1), canine IgGB, N434T (antibody)
chain 1: B5 chain 1 with A440T
chain 2: B5 chain 2

Where a chain is given by its changes, count along the chain named. Numbers in names are those of the source.

The target of the first assay is canine FcRn complex (FcRn-α subunit and β-microglobulin), biotin labeled by BirA, captured on SA chip (Example 5) (canine). Put plainly: SPR (Biacore), biotinylated FcRn captured on SA chip, IgG flowed, pH 6, 15 C. On the technique in general: In SPR one partner is held on a chip, and binding of the other changes the refractive index at the surface.
On to B1, for which the Kd was 95.5 nM.

Consider B2, for which the Kd is 52 nM. With B3, the Kd turned out to be 71 nM. Same read-out and setting: next, B4: 40 nM.

The target in the next assay is T1, canine FcRn complex (FcRn-α subunit and β-microglobulin), biotin labeled by BirA, captured on SA chip … (canine, UniProt A0A8I3PFR8 25-296, biotin label by BirA enzymatic biotinylation (BAP tag)). Described as above.
T1 sequence (A0A8I3PFR8 entry or part of it, one chain of several): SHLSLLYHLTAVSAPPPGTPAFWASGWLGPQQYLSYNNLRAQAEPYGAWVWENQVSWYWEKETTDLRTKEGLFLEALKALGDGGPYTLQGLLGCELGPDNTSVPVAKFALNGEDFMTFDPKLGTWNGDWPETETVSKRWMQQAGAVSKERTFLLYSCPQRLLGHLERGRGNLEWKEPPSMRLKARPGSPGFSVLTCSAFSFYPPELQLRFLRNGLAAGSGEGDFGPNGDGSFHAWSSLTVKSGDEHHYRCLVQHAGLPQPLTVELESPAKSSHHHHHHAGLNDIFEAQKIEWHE
For B5, binding was characterised by a dissociation constant (Kd) of 139 nM. Turning to B6, the Kd was 30.7 nM. On the same count and under the same terms, the value for B7 was 118 nM; that for B8 was 9.11 nM; that for B9 was 77.1 nM. Consider B10, for which the affinity, expressed as Kd, was 14.3 nM.

The target in the next assay is T1, canine FcRn complex (FcRn-α subunit and …). Described as above. The source holds these as a separate data set.
As for B11, the dissociation constant Kd came to 5.91 nM. The same measure, in the same setting: next, B12: 6.16 nM. Same read-out and setting: next, B13: 2.71 nM.

As for B14, the Kd came out at 20.2 nM. Same read-out and setting: the value for B15 was 14.2 nM. For B16, the Kd is 0.906 nM. Same read-out and setting: next, B17: 1.98 nM. On to B18, for which binding was put at a Kd of 34.2 nM.

A further assay has the same target. Kind of assay: SPR (Biacore), biotinylated FcRn captured on SA chip, IgG flowed, pH 7.4, 15 C.
Turning to B5, binding was characterised by a dissociation constant (Kd) of 175 nM. With B6, the Kd turned out to be 33700 nM.

B7: binding was put at a Kd of 26000 nM. Same read-out and setting: the value for B8 was 7.86 nM; that for B9 was 19600 nM.

B10 returned a Kd of 997 nM.

The target is the same in another assay. The assay is described as above. The source holds these as a separate data set.
For the molecule B11, the Kd turned out to be 21.8 nM. Same read-out and setting: next, B12: 2750 nM; B13: 1900 nM.

For B14, the Kd stood at 6960 nM. This Kd lies about 3.7-fold higher than the previous one. B15: the affinity, expressed as Kd, was 146000 nM. On to B16, for which the Kd is 3.11 nM. In the case of B17, the Kd is 25300 nM. For B18, the Kd was 554 nM. Against the preceding molecule, the Kd is about 46-fold lower.

As usually defined, the Kd is a measure of binding affinity in units of concentration. The low end stands for tighter binding, the high end for weaker binding.
